The values below come from PMC6685660.

Holding throughout (assay): EMSA
On the technique in general: A gel shift assay detects complexes by their altered migration in electrophoresis.

For one data set, the target named is T1, AaNPR1 (Artemisia annua, UniProt A0A481P8F5 1-569).
T1 sequence: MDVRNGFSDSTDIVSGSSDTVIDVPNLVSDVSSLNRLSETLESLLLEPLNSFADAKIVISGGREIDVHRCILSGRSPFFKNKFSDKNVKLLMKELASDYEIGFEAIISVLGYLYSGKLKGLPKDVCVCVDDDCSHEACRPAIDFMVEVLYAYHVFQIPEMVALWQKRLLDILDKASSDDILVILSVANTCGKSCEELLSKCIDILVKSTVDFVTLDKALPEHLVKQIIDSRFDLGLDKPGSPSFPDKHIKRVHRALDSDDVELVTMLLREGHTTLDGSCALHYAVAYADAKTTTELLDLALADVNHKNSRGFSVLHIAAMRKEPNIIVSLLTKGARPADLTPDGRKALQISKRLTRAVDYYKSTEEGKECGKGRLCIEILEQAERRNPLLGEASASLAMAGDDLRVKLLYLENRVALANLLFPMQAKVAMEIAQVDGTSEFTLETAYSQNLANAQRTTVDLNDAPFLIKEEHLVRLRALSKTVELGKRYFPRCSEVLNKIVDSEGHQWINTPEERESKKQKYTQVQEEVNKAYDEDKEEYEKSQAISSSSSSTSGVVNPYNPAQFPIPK

The next data set has as its target T2, AaTGA6 (Artemisia annua, UniProt A0A481P8G0 1-436).
T2 sequence: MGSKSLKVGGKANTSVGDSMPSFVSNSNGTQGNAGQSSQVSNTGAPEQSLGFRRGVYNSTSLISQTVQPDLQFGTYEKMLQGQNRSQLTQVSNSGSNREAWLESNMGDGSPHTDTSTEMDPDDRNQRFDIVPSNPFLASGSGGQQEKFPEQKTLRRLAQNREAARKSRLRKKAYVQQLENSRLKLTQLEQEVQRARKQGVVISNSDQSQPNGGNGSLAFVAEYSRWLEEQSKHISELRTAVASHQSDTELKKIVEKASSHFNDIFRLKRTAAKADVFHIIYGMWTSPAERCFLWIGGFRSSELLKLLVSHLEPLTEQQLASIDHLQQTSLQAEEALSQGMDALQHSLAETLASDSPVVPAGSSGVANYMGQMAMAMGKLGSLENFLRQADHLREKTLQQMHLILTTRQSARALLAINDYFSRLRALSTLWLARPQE

In the next data set the target is T3, AaTGA6;AaNPR1 (Artemisia annua;Artemisia annua, UniProt A0A481P8G0;A0A481P8F5 1-436;1-569, |).
T3 sequence 1: T2 sequence
T3 sequence 2: T1 sequence

B1: AaERF1 promoter TGACG box probe (40 bp) (dsDNA)
DNA 1: AATGATGCGTCAAGCCATGACGTCACCCCTAATCCTAAAT
DNA 2: ATTTAGGATTAGGGGTGACGTCATGGCTTGACGCATCATT
On to B1, for which the binding result is given as “no binding” with AaNPR1, “binds” in the data set with AaTGA6 and “binds” in the data set with AaTGA6;AaNPR1.
